This note sets out measurements from publication PMC11381335, “Unraveling the structure and function of a novel SegC protein interacting with the SegAB chromosome segregation complex in Archaea” (Nucleic Acids Research, 2024).

For this data set, the target named is T1, SegC1-155 (UniProt Q981B4 1-155, del156-165).
T1 sequence: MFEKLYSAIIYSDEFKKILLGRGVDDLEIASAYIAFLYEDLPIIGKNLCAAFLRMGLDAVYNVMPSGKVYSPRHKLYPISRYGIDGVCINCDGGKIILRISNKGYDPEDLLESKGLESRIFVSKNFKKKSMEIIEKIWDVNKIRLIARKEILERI
Kind of data set: fluorescence polarization; FP: 20 mM Tris-HCl pH 7.5, 100 mM NaCl, 2 mM MgCl2, 5 nM Cy3-DNA, room temperature; EMSA: same buffer, 10 nM Cy3-DNA, 37 C 30 min, 4-12% TBE gel. The conditions noted are these: protein: recombinant; tags: C-terminal His6; label: 5' Cy3; 20 bp paired with 3' overhang 1 nt at each end (from printed strands). Background: Polarisation of emitted light reports the rotation of a fluorescent probe.

B1: 21-bp site 1 (S1) dsDNA (dsDNA)
DNA 1: ACGTAGAAGAGTCTAGACTGA
DNA 2: CAGTCTAGACTCTTCTACGTA
As to B1, the binding result is listed as “no binding”.
